Assay results: US20250223332A1 (BOARD OF TRUSTEES OF THE UNIVERSITY OF ILLINOIS, published 2025)
Values belong to the binder of their own block, whether it stands above or below them.

Assays:
[1] = target: T1, hDLL4-Fc (Sino Biologics) (human, UniProt Q9NR61 27-524, limits assumed); assay: SPR (Biacore T200), hDLL4-Fc on the chip, decoy as analyte, KD = kd/ka
T1 construct: Bought from Sino Biologics; also called Recombinant Fc-tagged hDLL4; recombinant hDLL4; not shown: Fc tag of the bought protein
T1 sequence (Q9NR61 27-524 limits assumed): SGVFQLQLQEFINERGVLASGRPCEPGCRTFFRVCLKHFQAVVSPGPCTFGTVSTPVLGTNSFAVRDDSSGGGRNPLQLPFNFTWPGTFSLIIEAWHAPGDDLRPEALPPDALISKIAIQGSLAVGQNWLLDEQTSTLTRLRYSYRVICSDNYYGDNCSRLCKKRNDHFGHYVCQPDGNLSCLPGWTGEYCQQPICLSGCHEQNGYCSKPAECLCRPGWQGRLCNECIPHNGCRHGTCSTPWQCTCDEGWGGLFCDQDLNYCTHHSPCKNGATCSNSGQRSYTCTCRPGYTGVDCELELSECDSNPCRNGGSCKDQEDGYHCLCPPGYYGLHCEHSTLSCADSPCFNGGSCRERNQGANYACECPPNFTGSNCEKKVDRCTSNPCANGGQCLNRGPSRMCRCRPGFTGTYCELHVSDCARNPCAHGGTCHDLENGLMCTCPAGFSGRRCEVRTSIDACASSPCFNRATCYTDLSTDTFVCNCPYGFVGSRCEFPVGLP
Experimental: (§1) Affinity Analysis. The binding kinetics of N1₁₀₋₁₄Fc and N4₁₀₋₁₄Fc were analyzed using a Surface Plasmon Resonance (SPR)-based assay on the BIACORE™ T200 system (GE Healthcare). Human IgG Fc (Sino Biologics) was first immobilized on a CM5 biosensor chip. Subsequently, an appropriate concentration of hDLL4-Fc (Sino Biologics) and hJAG1-Fc (Sino Biologics) was captured to the surface at a Response Unit (RU) of up to 20,000. Various concentrations of N1₁₀₋₁₄Fc and N4₁₀₋₁₄Fc were then passed through the chip with running buffer (1×HBS-N (10 mM HEPES, 150 mM NaCl) with 0.005% polysorbate 20, 1 mM CaCl₂), 2 mM MgCl₂, PH 7.4). After each reaction, the captured ligands and analyte were removed by regeneration buffer (1×HBS-N (10 mM HEPES, 150 mM NaCl) with 0.005% polysorbate 20, 1 mM CaCl₂), 2 mM MgCl₂, pH 7.4). The whole reaction was conducted at 25° C. and a flow rate of 25 μl/min. Sensorgrams of each concentration were obtained and analyzed by BIACORE™ evaluation software (GE Healthcare). The equilibrium constant KD was calculated from the ratio of the dissociation rate constant kd to the association rate constant kₐ (kd/kₐ).
Surface plasmon resonance (SPR) spectroscopy was used to characterize and quantify the interactions between these proteins. […]

[2] = target: T1, hDLL4-Fc (Sino Biologics); assay: SPR (Biacore T200), hDLL4-Fc on the chip, decoy as analyte, multi-cycle kinetics, 25 C
Experimental: as §1
Surface plasmon resonance (SPR) spectroscopy was used to characterize and quantify the interactions between these proteins. Recombinant Fc-tagged hDLL4 and hJAG1 were immobilized on the sensor chip using amine coupling and multi-cycle kinetic experiments were performed using increasing concentrations of either N1₁₀₋₁₄Fc or N4₁₀₋₁₄Fc. As a control, recombinant IgG Fc was immobilized on the sensor chip.

Kd [1]: 605 nM
koff [2]: 0.019 s⁻¹
kon [2]: 31500 M⁻¹ s⁻¹
B1: N110-14Fc (human Notch1 EGF-like repeats 10-14 fused to human IgG Fc) (Fc fusion)
chain: ARGPRCISNPCNEGSNCDTNPVNGKAICTCPSGYTGPACSQDVDECSLGANPCEHAGKCINTLGSFECQCLQGYTGPRCEIDVNECVSNPCQNDATCLDQIGEFQCICMPGYEGVHCEVNTDECASSPCLHNGRCLDKINEFQCECPTGFTGHLCQYDVDECASTPCKNGAKCLDGPNTYTCVCTEGYTGTHCE
notes: Produced in HEK293 cells; also called Notch1 peptibody; Notch1 decoy; not shown: human IgG Fc

Kd [1]: 962 nM
koff [2]: 0.0099 s⁻¹
kon [2]: 10300 M⁻¹ s⁻¹
B2: N410-14Fc (human Notch4 EGF-like repeats 10-14 fused to human IgG Fc) (Fc fusion)
chain: LEDMCLSQPCHGDAQCSTNPLTGSTLCLCQPGYSGPTCHQDLDECLMAQQGPSPCEHGGSCLNTPGSFNCLCPPGYTGSRCEADHNECLSQPCHPGSTCLDLLATFHCLCPPGLEGQLCEVETNECASAPCLNHADCHDLLNGFQCICLPGFSGTRCEEDIDECRSSPCANGGQCQDQPGAFHCKCLPGFEGPRCQ
notes: Produced in HEK293 cells; also called Notch4 peptibody; Notch4 decoy; not shown: human IgG Fc
